Results published in PMC10397247.

Experiments:
4H3462-bH = molecular target: T1, 4H3462-bH; test: two-hybrid library CCNG1;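 further: natural log of median RNA to DNA barcode read ratio; higher means stronger binding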
T1 chain: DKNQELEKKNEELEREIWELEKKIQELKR

4H3628-bH = molecular target: T2, 4H3628-bH; test: two-hybrid library CCNG1;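 further: natural log of median RNA to DNA barcode read ratio; higher means stronger binding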
T2 chain: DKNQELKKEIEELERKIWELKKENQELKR

4H3613-bH = molecular target: T3, 4H3613-bH; test: two-hybrid library CCNG1;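 further: natural log of median RNA to DNA barcode read ratio; higher means stronger binding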
T3 chain: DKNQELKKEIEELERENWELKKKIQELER

4H626-bH = molecular target: T4, 4H626-bH; test: two-hybrid library CCNG1;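 further: natural log of median RNA to DNA barcode read ratio; higher means stronger binding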
T4 chain: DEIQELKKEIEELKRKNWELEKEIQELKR

4H3497-bH = molecular target: T5, 4H3497-bH; test: two-hybrid library CCNG1
T5 chain: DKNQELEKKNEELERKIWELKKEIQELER

4H906-bH = molecular target: T6, 4H906-bH; test: two-hybrid library CCNG1
T6 chain: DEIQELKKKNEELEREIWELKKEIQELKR

4H591-bH = molecular target: T7, 4H591-bH; test: two-hybrid library CCNG1
T7 chain: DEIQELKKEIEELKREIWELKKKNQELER

4H575-bA = molecular target: T8, 4H575-bA; test: two-hybrid library CCNG1
T8 chain: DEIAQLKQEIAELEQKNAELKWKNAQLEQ

4H3298-bH = molecular target: T9, 4H3298-bH; test: two-hybrid library CCNG1
T9 chain: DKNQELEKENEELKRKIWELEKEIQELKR

4H3926-bH = molecular target: T10, 4H3926-bH; test: two-hybrid library CCNG1
T10 chain: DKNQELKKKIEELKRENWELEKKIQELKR

P3-AA = molecular target: T11, P3-AA; test: two-hybrid library CCmax; details: mean of both orientations
T11 chain: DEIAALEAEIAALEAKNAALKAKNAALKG

AP6-AA = molecular target: T12, AP6-AA; test: two-hybrid library CCmax; details: mean of both orientations
T12 chain: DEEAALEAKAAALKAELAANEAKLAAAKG

P7-AA = molecular target: T13, P7-AA; test: two-hybrid library CCmax; details: mean of both orientations
T13 chain: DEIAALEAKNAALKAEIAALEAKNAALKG

P9-AA = molecular target: T14, P9-AA; test: two-hybrid library CCmax; details: mean of both orientations
T14 chain: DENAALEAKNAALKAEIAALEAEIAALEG

P8-AA = molecular target: T15, P8-AA; test: two-hybrid library CCmax; details: mean of both orientations
T15 chain: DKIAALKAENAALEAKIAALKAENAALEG

P4-AA = molecular target: T16, P4-AA; test: two-hybrid library CCmax; details: mean of both orientations
T16 chain: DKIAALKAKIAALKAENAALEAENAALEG

P1-AA = molecular target: T17, P1-AA; test: two-hybrid library CCmax; details: mean of both orientations
T17 chain: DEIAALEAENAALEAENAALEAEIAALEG

AP7-AA = molecular target: T18, AP7-AA; test: two-hybrid library CCmax; details: mean of both orientations
T18 chain: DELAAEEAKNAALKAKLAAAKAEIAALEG

GCN2_T = test: two-hybrid library CCmax
P2-AA = molecular target: T19, P2-AA; test: two-hybrid library CCmax; details: mean of both orientations
T19 chain: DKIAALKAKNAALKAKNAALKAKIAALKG

P10-AA = molecular target: T20, P10-AA; test: two-hybrid library CCmax; details: mean of both orientations
T20 chain: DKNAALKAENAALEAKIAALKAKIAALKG

AP4-AA = molecular target: T21, AP4-AA; test: two-hybrid library CCmax
T21 chain: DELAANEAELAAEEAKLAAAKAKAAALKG

P12-AA = molecular target: T22, P12-AA; test: two-hybrid library CCmax; details: mean of both orientations
T22 chain: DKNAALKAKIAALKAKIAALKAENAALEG

AP5-AA = molecular target: T23, AP5-AA; test: two-hybrid library CCmax; details: mean of both orientations
T23 chain: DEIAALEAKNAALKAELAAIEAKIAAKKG

P11-AA = molecular target: T24, P11-AA; test: two-hybrid library CCmax; details: mean of both orientations
T24 chain: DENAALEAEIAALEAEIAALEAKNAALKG

AP8-AA = molecular target: T25, AP8-AA; test: two-hybrid library CCmax; details: mean of both orientations
T25 chain: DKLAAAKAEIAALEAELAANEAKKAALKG

In the case of DKNQELEKENEELKRKIWELEKEIQELKR [4H3298-bH], the interaction score (4H3462-bH) is reported as 0.573, the interaction score (4H3628-bH) is reported as 0.519 and the interaction score (4H3613-bH) is reported as -1.68. For the same binder, the interaction score (4H626-bH) was -0.173, the interaction score (4H3497-bH) was -0.424 and the interaction score (4H906-bH) was -0.397. It also gave an interaction score (4H591-bH) of -1.21, an interaction score (4H575-bA) of -1.29 and an interaction score (4H3298-bH) of 1.66. For the same binder, the interaction score (4H3926-bH) was -0.215.

Work on DELAANEAELAAEEAKLAAAKAKAAALKG [AP4-AA] yielded an interaction score (P3-AA) of -1.14, an interaction score (AP6-AA) of -2.03 and an interaction score (P7-AA) of -1.82. The interaction score (P9-AA) was -1.6, the interaction score (P8-AA) was -1.15 and the interaction score (P4-AA) was -1.48. For the same binder, the interaction score (P1-AA) was -1.34, the interaction score (AP7-AA) was -1.78 and the interaction score (GCN2_T) was -1.55. For the same binder, the interaction score (P2-AA) was -1.78, the interaction score (P10-AA) was -1.25 and the interaction score (AP4-AA) was -1.46. The interaction score (P12-AA) was -1.45, the interaction score (AP5-AA) was -1.51 and the interaction score (P11-AA) was -0.858. It also gave an interaction score (AP8-AA) of -1.25.
